Results as given in patent publication US20090257987A1, “Method of generating dopamine-secreting cells” (Ramot At Tel Aviv University Ltd., priority 2008, published 2009).

Key:
Type in all cases: cell-based
[1] = system: human MSCs; experiment: Bright-light microscopy of cell morphology after induction; settings: from MSC fibroblast shape
Method: (§1) Induction of differentiation: The differentiation protocol was composed of 2 steps. In step 1, cells were transferred to serum-free medium (DMEM) supplemented with 2 mM glutamine, 100 μg/ml streptomycin, 100 units/ml penicillin, 12.5 units/ml nystatin (Biological Industries), N2 supplement (Invitrogen, New Haven, Conn.) and 20 ng/ml fibroblast growth factor 2 and epidermal growth factor (both from R&D Systems, Minneapolis, Minn.) for 48-72 hours. In step 2, the medium was changed to Basic induction medium containing Neurobasal, B27 (both from Invitrogen), in addition to 1 mM dibutyryl cyclic AMP (dbcAMP), 3-isobutyl-1-methyl-xanthine (IBMX), and 200 μM ascorbic acid (all from Sigma, St Louis, Mo.). The following factors were added to the Basic induction medium in different combinations: brain-derived neurotrophic factor (BDNF; 50 ng/ml), glial-derived neurotrophic factor (GDNF;10 ng/ml), neurturin (100 ng/ml), neurotrophin 3 (NT3; 50 ng/ml), and fibroblast growth factor 8 (FGF8; 100 ng/ml (all from Cytolab, Rehovot, Israel); transforming growth factor β3 (TGFβ3; 2 ng/ml), sonic hedgehog (Shh; 500 ng/ml, both from R&D); estrogen (0.1 μM, Sigma); and all-trans-retinoic acid (RA; 0.1 μM, Sigma).

[2] = system: human MSCs; experiment: Intracellular FACS analysis of TH expression; settings: none of the untreated cells
Method: Induction of differentiation: The differentiation protocol was composed of 2 steps. In step 1, cells were transferred to serum-free medium (DMEM) supplemented with 2 mM glutamine, 100 μg/ml streptomycin, 100 units/ml penicillin, 12.5 units/ml nystatin (Biological Industries), N2 supplement (Invitrogen, New Haven, Conn.) and 20 ng/ml fibroblast growth factor 2 and epidermal growth factor (both from R&D Systems, Minneapolis, Minn.) for 48-72 hours. In step 2, the medium was changed to Basic induction medium containing Neurobasal, B27 (both from Invitrogen), in addition to 1 mM dibutyryl cyclic AMP (dbcAMP), 3-isobutyl-1-methyl-xanthine (IBMX), and 200 μM ascorbic acid (all from Sigma, St Louis, Mo.). […]
Intracellular fluorescence-activated cell sorter (FACS) analysis: Cells were harvested from the tissue culture flasks, centrifuged, and resuspended in phosphate-buffered saline (PBS). […] The results were analyzed with CellQuest software. […]

[3] = system: human MSCs; experiment: Western blot analysis of TH protein expression after differentiation protocols; settings: result in words
Method: MSC isolation, culture, and characterization: Fresh bone marrow aspirates harvested from the iliac crests of adult donors (age 19-76) were diluted with Hanks' balanced salt solution. Mononuclear cells were isolated by centrifugation in Unisep-Maxi tubes (Novamed, Jerusalem, Israel) by density gradient. The cells were then plated in Dulbecco's Modified Eagle's Medium (DMEM) supplemented with 15% fetal bovine serum (FBS), 2 mM glutamine, 100 μg/ml streptomycin, 100 units/ml penicillin, 12.5 units/ml nystatin (Biological Industries, Beit HaEmek, Israel) in polystyrene plastic 75-cm^2 tissue-culture flasks. After 24 hours, nonadherent cells were removed. The medium was changed every 3-4 days. Adherent cells were cultured to 70%-90% confluence and reseeded at a density of 5,000-10,000 cells/cm^2. The cells were maintained at 37° C. in a humidified 5% CO2 incubator. The MSCs were characterized for their cell-surface phenotype and their mesenchymal differentiation capacity, as previously described (Blondheim er al., 2006, Stem Cells Dev 15:141-164).
as §1
Western blot: Total protein was extracted by suspending the harvested cells in lysis buffer containing 10 mM Tris base (U.S. Biochemical Corporation, Cleveland, Ohio), 5 mM EDTA (Merck, Whitehouse Station, N.J.), 140 mM sodium chloride (NaCl; BioLab, Jerusalem, Israel), 10 mM sodium fluoride (NaF; Sigma), 0.5% NP 40 (U.S. Biochemical Corporation), and 1 μM phenylmethylsulfonyl fluoride (PMSF; Sigma). Following incubation on ice for 30 minutes, the mixture was centrifuged and the supernatants were collected. Protein content was determined by the BCA protein assay kit (Pierce, Rockford, Ill.). Twenty-five micrograms of protein from each sample were subjected to sodium dodecyl-sulfate (SDS)-polyacrylamide gel electrophoresis (PAGE) (12.5% acrylamide), followed by electrophoretic transfer to nitrocellulose membrane (Schleicher & Schuell, Dassel, Germany). Membranes were probed by mouse anti-TH (1:10,000, Sigma) and mouse anti β-actin (1:10,000, Chemicon, Billerica, Mass.) and then by goat anti-mouse horseradish peroxidase conjugated antibody (1:10,000) (Jackson, West Grove, Pa.) and rabbit anti-emerin (1:5,000, Santa Cruz Biotechnology, Santa Cruz, Calif.), followed by goat anti-rabbit horseradish peroxidase conjugated secondary antibody (1:10,000, Sigma). Adequate controls included HeLa cells (ATCC, Manassas, Va.) as negative control and neuroblastoma M17 cells (BE (2)-M17, ATCC) as positive control. Proteins of interest were detected using the enhanced Super Signal® chemiluminescent detection kit (Pierce).

B1: brain-derived neurotrophic factor (protein, UniProt P23560 19-247, looked up)
Neurotrophic factor BDNF …: APMKEANIRGQGGLAYPGVRTHGTLESVNGPKAGSRGLTSLADTFEHVIEELLDEDQKVRPNEENNKDADLYTSRVMLSSQVPLEPPLLFLLEEYKNYLDAANMSMRVRRHSDPARRGELSVCDSISEWVTAADKKTAVDMSGGTVTVLEKVPVSKGQLKQYFYETKCNPMGYTKEGCRGIDKRHWNSQCRTTQSYVRALTMDSKKRIGWRFIRIDTSCVCTLTIKRGR
notes: brain-derived neurotrophic factor (50 ng/ml) added to the Basic induction medium
[1]
  cell morphology: neuron-like appearance
[2]
  induced cells expressing the TH protein at a detectable level: More than 30%
[3]; listed as BDNF
  TH protein expression level normalized to actin: directly affected the TH protein expression level
[3]; listed as BDNF alone
  TH protein expression level normalized to actin: significant results
